From patent publication US20060115897A1 come the findings set out here.

Bounds are passed on as bounds.

The assay concerns the target C3b (UniProt P01024). Kind of assay: cell-based or functional assay.

Sequence of C3b (P01024 749-1663 limits assumed, chain 1 of 2): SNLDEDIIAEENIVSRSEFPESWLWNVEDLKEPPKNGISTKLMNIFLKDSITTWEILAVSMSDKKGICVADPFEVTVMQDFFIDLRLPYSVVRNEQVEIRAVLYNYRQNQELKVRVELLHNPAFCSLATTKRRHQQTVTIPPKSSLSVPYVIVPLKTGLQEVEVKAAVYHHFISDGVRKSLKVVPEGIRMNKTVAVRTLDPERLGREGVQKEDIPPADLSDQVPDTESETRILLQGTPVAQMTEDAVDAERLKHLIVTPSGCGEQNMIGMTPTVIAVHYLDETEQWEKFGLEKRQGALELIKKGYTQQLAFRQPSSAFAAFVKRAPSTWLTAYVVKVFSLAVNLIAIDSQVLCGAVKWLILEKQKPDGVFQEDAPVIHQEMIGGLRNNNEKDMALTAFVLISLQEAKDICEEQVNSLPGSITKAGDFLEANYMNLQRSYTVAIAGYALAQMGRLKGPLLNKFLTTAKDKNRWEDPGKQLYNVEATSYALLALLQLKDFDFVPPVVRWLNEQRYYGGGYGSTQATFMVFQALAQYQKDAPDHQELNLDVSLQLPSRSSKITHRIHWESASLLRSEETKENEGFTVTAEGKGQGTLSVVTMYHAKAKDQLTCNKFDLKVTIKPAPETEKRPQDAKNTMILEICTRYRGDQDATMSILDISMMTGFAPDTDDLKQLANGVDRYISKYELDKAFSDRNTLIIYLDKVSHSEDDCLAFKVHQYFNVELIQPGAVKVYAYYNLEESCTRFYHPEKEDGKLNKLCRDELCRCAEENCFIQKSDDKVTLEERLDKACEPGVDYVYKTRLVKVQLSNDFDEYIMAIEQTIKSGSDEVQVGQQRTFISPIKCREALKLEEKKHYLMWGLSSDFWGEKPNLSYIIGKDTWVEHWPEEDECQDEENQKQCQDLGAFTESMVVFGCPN
Sequence of C3b (P01024 23-667 limits assumed, chain 2 of 2): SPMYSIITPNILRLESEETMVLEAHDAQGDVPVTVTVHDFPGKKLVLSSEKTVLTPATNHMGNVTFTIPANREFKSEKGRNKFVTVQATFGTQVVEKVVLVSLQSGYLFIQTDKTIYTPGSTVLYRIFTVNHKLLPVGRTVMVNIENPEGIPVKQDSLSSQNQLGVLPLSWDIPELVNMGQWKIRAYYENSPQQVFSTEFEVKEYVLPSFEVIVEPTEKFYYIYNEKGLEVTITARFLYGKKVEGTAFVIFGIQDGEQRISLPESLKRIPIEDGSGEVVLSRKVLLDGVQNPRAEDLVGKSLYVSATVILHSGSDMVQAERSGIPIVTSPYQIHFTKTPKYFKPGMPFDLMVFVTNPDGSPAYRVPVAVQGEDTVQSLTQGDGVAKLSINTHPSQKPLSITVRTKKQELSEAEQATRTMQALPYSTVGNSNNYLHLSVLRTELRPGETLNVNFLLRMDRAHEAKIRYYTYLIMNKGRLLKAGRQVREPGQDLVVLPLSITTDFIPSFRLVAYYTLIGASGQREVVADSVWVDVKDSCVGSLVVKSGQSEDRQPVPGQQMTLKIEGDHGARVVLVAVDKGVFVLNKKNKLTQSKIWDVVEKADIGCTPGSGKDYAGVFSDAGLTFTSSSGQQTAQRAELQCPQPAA

“soluble human CR1 (from UniProt P17927 42-1971) (receptor)” showed a speed as cofactor in the degradation of C3b, against SPICEhis of over 2 fold.
